Test results taken from patent EP3228631A2 (TLA Targeted Immunotherapies AB, dated 2017).

What was measured:
CCR7 = target: T1, CCR7 (human, UniProt P32248 25-378); assay: cell-based or functional assay
T1 sequence (looked up): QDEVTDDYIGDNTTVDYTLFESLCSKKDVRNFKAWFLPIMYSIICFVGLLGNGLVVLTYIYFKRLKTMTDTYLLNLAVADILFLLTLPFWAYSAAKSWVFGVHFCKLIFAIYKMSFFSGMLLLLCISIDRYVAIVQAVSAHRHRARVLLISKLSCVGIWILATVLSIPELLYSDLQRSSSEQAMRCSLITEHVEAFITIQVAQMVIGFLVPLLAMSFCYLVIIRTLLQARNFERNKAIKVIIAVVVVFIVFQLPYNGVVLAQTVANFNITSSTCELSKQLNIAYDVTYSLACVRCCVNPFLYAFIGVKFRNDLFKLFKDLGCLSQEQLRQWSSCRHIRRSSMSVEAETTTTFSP

hCXCR1 (human) = hCXCR1 (human) (UniProt P25024); assay: cell-based or functional assay
CCR3 (human) [1] = target: CCR3 (human) (UniProt P51677); assay: cell-based or functional assay
CCR3 (human) [2] = target: CCR3 (human) (UniProt P51677); assay: blood passed through the eotaxin coupled matrix (MACS beads, magnetic separator); flow cytometry before and after; one healthy donor
CCR3 (human) [3] = target: CCR3 (human) (UniProt P51677); assay: blood passed through the biotinylated RANTES coupled matrix column; flow cytometry for CCR1, 3 or 5-expressing cells; one healthy donor
CCR5 (human) [4] = target: CCR5 (human) (UniProt P51681); assay: as above
CCR1 (human) = target: T2, CCR1 (human) (UniProt P32246); assay: as above
T2 sequence (looked up): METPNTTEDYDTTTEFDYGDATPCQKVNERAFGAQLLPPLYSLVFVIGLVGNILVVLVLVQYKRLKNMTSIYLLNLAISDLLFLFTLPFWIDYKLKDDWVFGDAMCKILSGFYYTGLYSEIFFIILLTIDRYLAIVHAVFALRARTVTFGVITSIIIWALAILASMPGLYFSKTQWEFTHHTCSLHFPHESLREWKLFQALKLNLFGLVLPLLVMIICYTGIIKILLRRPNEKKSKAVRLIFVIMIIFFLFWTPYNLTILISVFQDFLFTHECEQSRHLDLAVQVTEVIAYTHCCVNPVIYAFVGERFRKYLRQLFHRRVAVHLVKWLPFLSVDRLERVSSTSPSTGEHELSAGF

CCR5 (human) [5] = target: CCR5 (human) (UniProt P51681); assay: cell-based or functional assay
hCCR2b = target: T3, hCCR2b (human, UniProt P41597 1-374); assay: cell-based or functional assay
T3 chain: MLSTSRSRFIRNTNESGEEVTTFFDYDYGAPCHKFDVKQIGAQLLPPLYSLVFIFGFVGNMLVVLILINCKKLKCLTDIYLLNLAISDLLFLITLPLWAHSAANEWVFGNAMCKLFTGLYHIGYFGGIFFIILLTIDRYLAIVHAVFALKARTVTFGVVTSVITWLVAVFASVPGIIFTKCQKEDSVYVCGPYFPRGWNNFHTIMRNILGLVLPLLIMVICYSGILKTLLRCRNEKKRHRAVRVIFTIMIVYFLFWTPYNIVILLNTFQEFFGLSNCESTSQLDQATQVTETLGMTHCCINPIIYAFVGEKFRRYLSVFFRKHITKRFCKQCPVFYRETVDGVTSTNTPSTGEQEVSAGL

Sequence of CCR3 (human) (P51677 whole entry): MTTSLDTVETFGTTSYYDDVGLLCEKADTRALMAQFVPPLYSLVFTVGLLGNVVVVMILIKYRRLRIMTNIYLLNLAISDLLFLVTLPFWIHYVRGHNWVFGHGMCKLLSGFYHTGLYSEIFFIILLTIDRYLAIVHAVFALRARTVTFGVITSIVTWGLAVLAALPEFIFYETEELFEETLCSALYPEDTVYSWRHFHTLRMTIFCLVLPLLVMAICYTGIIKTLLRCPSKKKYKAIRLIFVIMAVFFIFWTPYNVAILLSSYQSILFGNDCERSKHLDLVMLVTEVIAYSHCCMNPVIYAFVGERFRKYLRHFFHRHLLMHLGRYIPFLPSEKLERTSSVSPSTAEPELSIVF
Sequence of hCXCR1 (human) (P25024 whole entry): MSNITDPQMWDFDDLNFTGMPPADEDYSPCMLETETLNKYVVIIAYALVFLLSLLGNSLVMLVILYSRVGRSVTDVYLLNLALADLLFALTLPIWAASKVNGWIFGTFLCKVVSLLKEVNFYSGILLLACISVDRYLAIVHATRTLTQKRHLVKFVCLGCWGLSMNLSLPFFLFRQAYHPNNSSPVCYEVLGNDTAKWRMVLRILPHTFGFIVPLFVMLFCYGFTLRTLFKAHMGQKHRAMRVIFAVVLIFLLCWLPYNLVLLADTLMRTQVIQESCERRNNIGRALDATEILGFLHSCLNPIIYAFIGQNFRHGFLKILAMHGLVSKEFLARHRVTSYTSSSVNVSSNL
Sequence of CCR5 (human) (P51681 whole entry): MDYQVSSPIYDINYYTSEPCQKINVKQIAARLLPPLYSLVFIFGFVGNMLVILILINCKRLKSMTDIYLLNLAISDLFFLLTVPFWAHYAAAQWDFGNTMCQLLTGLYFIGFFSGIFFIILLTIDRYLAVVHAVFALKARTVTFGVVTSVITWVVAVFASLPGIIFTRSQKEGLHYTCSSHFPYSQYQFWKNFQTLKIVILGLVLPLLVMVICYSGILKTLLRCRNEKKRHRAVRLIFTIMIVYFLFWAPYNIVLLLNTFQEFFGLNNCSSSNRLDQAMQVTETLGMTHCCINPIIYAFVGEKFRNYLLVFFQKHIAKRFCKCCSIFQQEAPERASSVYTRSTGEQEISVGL

recombinant native MIP-3β (from UniProt Q99731 22-98) (ligand)
EC50, Aequorin assay (CCR7): 1.6 nM

biotinIL-8 (6-78) (IL-8 (6-78) derivatised at the ε-amino side chain functionality of Lys(78) with PEG-Biotin) (from UniProt P10145 28-99) (ligand)
EC50, agonist activity, Aequorin assay (hCXCR1 (human)): 6.1 nM

recombinant native eotaxin (from UniProt P51671 24-97) (ligand)
EC50, agonist, Aequorin assay (CCR3 (human) [1]): 10.7 nM

recombinant native IL-8 (from UniProt P10145 28-99) (ligand)
EC50, Aequorin assay (hCXCR1 (human)): 4.2 nM

biotinylated eotaxin (from UniProt P51671 24-97) (ligand)
reduction of CCR3-expressing cells by the column (CCR3 (human) [2]): 25%

biotinRANTES (RANTES derivatised at the ε-amino side chain functionality of Lys(67) with Biotin) (from UniProt P13501 24-91) (ligand)
reduction of chemokine receptor-expressing cells by the column (CCR3 (human) [3]): 20% | reduction of chemokine receptor-expressing cells by the column (CCR5 (human) [4]): 20% | reduction of chemokine receptor-expressing cells by the column (CCR1 (human)): 20% | EC50, agonist activity, Aequorin assay (CCR5 (human) [5]): 0.5 nM

B1: recombinant native MCP-2 (ligand, human, UniProt P80075 24-99, looked up)
chain: QPDSVSIPITCCFNVINRKIPIQRLESYTRITNIQCPKEAVIFKTKRGKEVCADPKERWVRDSMKHLDQIFQNLKP
EC50, partial agonist, Aequorin assay (hCCR2b): 23.5 nM

B2: biotinMIP-3β (MIP-3β derivatised at the ε-amino side chain functionality of Lys(78) with Biotin) (ligand)
chain: GTNDAEDCCLSVTQKPIPGYIVRNFHYLLIKDGCRVPAVVFTTLRGRQLCAPPDQPWVERIIQRLQRTSAKMKRRSSX
modifications: X78 = K(Biotin) (additional C-terminal lysine, biotinylated); C-terminal amide (Rink Amide resin)
EC50, agonist activity, Aequorin assay (CCR7): 11 nM
